In patent WO2025083273A1 (dated 2025):

Legend:
[1] = molecular target: T1, human DR3 (TNFRSF25) expressed on cells (human, UniProt Q93038 25-417); experiment: cell-based or functional assay
T1 sequence: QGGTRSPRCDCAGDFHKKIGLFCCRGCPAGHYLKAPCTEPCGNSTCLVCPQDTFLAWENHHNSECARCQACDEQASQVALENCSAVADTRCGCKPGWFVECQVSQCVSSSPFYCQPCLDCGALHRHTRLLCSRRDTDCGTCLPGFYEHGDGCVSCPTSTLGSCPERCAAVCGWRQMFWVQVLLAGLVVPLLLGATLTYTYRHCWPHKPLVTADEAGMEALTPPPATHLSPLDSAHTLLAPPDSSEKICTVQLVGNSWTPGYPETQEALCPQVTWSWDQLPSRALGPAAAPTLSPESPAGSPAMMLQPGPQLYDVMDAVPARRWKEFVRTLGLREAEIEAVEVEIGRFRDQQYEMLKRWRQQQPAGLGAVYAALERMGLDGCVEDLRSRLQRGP

[2] = molecular target: T2, DR3-8i (human); experiment: BLI, IgG captured on protein A, DR3-8i in solution; Average
T2 construct: also called purified monomeric DR3-8i antigen protein
T2 chain: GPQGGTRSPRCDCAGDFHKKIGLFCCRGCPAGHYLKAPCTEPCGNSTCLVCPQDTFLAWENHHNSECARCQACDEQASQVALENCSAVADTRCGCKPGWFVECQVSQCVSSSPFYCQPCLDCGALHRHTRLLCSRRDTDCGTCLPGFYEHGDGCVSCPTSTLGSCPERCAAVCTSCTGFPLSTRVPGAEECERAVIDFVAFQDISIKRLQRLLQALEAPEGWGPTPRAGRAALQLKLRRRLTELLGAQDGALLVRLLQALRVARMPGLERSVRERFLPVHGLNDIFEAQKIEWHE

[3] = molecular target: T2, DR3-8i; experiment: BLI, IgG captured on protein A, DR3-8i in solution; Experiment 1
[4] = molecular target: T2, DR3-8i; experiment: BLI, IgG captured on protein A, DR3-8i in solution; Experiment 2
[5] = molecular target: T3, recombinant human DR3/TNFRSF25 Fc chimera (human, UniProt Q93038 25-199); experiment: HTRF epitope competition on DR3-Fc; competitor DyLight 650 labelled B9 IgG; mean ± SD of three experiments
T3 construct: extracellular domain; bought (R&D Systems); also called DR3-Fc; hDR3Fc chimera; not shown: human IgG1 Fc
T3 sequence (looked up): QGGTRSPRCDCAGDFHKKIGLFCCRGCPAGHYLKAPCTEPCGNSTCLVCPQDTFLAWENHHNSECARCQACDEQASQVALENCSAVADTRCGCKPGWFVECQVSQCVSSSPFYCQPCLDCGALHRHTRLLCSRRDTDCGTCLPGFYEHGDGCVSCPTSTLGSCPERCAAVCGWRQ

[6] = molecular target: T3, recombinant human DR3/TNFRSF25 Fc …; experiment: SPR (Biacore), His-tagged hDR3-Fc captured by anti-His mAb, bivalent fit; apparent KD
[7] = molecular target: T2, DR3-8i; experiment: BLI, IgG captured on protein A, DR3-8i in solution; single experiment, column not clear

B1: B9-hIgG1 (antibody, V domains shown)
VH: EVQLVESGGGLVKPGGSLKLSCSASGFTFSSYAMSWVRQTPEKRLEWVATISDGDSYSYFPDSVKDRFIISRDNAKNNLFLQMSHLRSEDTAMYYCTRDRIYGSVQYYAMDYWGQGTSVTVSS
VL: DIVLTQSPASLAVSLGQRATISCRASESVEFSGTSLMQWYQQRPGLPPKLLIYAASNVESGVPARFSGSGSGTDFSLNIHPVEEDDIAMYFCQQSRKLPYTFGGGTKLEIN
notes: chimeric: mouse B9 variable regions, human IgG1; also called B9-H1; Non-humanised B9
**Q.** How did the “EC50 (pM), DR3 Jurkat reporter” value [1] turn out when B1 was run?
**A.** 457 pM

**Q.** And the Kd [2]?
**A.** 0.259 nM

**Q.** What about the Kd [3] of the same binder?
**A.** 0.327 nM

**Q.** What about the Kd [4] of the same binder?
**A.** 0.19 nM

**Q.** What about the IC50 [5] of the same binder?
**A.** 0.252 nM

B2: B9 mIgG2A (antibody, V domains shown)
VH: EVQLVESGGGLVKPGGSLKLSCSASGFTFSSYAMSWVRQTPEKRLEWVATISDGDSYSYFPDSVKDRFIISRDNAKNNLFLQMSHLRSEDTAMYYCTRDRIYGSVQYYAMDYWGQGTSVTVSS
VL: DIVLTQSPASLAVSLGQRATISCRASESVEFSGTSLMQWYQQRPGLPPKLLIYAASNVESGVPARFSGSGSGTDFSLNIHPVEEDDIAMYFCQQSRKLPYTFGGGTKLEIN
notes: parental mouse IgG2a, kappa; also called B9-M2A; murine anti-hDR3 mAb clone B9
**Q.** How did the Kd [6] turn out when B2 was run?
**A.** 0.561 nM

B3: F10 mIgG1 (antibody, V domains shown)
VH: EVQLVESGGDLVKPGGSLKLSCAASGFSFSAYAMSWVRQTPEKILEWVATISDGDPYTYYPDNVKGRFTISRDNARNNLYLQMSHLRSEDTAIYYCTRERNDYDQYYTMDYWGQGTSVTVSS
VL: DIVLTQSPASLVVSLGQRATISCRASKSVSTSGYNYLHWYQQTPGQPPKLLIYLASNLESGVPARFSGSGSGTDFTLNIHPVEEEDVATYYCQHSRELPWTFGRGTKLEIKR
notes: parental mouse IgG1; also called F10-M1; murine anti-hDR3 mAb clone F10
**Q.** B3 was tested. Which Kd [6] did it give?
**A.** 1.07 nM

B4: VHg1/VLg11 (antibody, human IgG1, V domains shown)
VH: QVQLVQSGGGLVQPGGSLRLSCAASGFTFSSYAMSWVRQAPGKGLEWVSTISDGDSYSYFPDSVKDRFTISRDNSKNTLYLQMNSLRAEDTSVYYCARDRIYGSVQYYAMDYWGQGTLVTVSS
VL: DIVMTQSPDSLAVSLGERATINCRASESVEFSGTSLMQWYQQKPGQPPKLLIYAASNVESGVPDRFSGSGSGTDFTLTISSLQAEDVAVYYCQQSRKLPYTFGQGTKLEIK
notes: human IgG1; also called H1L11; VHg1/VL11
**Q.** For B4, which “EC50 (pM), DR3 Jurkat reporter” value [1] is on record?
**A.** 331 pM

**Q.** And the “Signal (FLU)” value [1]?
**A.** 2.47e+06 FLU

**Q.** What about the Kd [3] of the same binder?
**A.** 0.001 nM

**Q.** What about the IC50 [5] of the same binder?
**A.** 0.447 nM

B5: VHg6/VLg13 (antibody, human IgG1, V domains shown)
VH: QVQLQQSGGGLVQPGGSLRLSCAASGFTFSSYAMSWVRQAPGKGLEWVATISDGDSYSYFPDSVKDRFTISRDNARNSLYLQMNSLRAEDTAVYYCARDRIYGSVQYYAMDYWGRGTLVTVSS
VL: DIQMTQSPSSLSASVGDRVTITCRASESVEFSGTSLMQWYQQKPGKAPKLLIYAASNVESGVPSRFSGSGSGTDFTFTISSLQPEDIATYYCQQSRKLPYTFGQGTKLEIK
notes: human IgG1
**Q.** With B5 as the binder, how does the “EC50 (pM), DR3 Jurkat reporter” value [1] read?
**A.** 141 pM

**Q.** What about the “Signal (FLU)” value [1] of the same binder?
**A.** 2.75e+06 FLU

**Q.** And the Kd [2]?
**A.** 0.16 nM

**Q.** And the Kd [3]?
**A.** 0.225 nM

**Q.** And the Kd [4]?
**A.** 0.0956 nM

**Q.** And the IC50 [5]?
**A.** 0.348 nM

B6: VHg5/VLg13 (antibody, human IgG1, V domains shown)
VH: QVQLQQSGGGLVQAGGSLRLSCAASGFTFTSYAMSWVRQAPGKGLEWVATISDGDSYSYFPDSVKDRFIISRDNAKNSLFLQMNSLRAEDTAVYYCARDRIYGSVQYYAMDYWGRGTLVTVSS
VL: DIQMTQSPSSLSASVGDRVTITCRASESVEFSGTSLMQWYQQKPGKAPKLLIYAASNVESGVPSRFSGSGSGTDFTFTISSLQPEDIATYYCQQSRKLPYTFGQGTKLEIK
notes: human IgG1
**Q.** Which results are given for B6?
**A.** Signal (FLU) [1]: 2.7e+06 FLU; Kd [7]: 0.124 nM

B7: VHg3/VLg4 (antibody, human IgG1, V domains shown)
VH: EVQLVQSGGGLVKPGGSLRLSCAASGFKFSSYAMSWVRQAPGKGLEWLSTISDGDSYSYFPDSVKDRFIISRDNAKNSLYLQMNSLRVEDTGVYYCARDRIYGSVQYYAMDYWGQGTLVTVSS
VL: DVVMTQSPDSLAVSLGERATISCRASESVEFSGTSLMQWYQQKPRQPLKLLIYAASNVESGVPDRFSGSGSGTDFTLTISSLQAEDVAVYYCQQSRKLPYTFGQGTRLEIK
notes: human IgG1
**Q.** Which results are given for B7?
**A.** Signal (FLU) [1]: 2.32e+06 FLU; Kd [7]: 0.385 nM

B8: VHg5/VLg2 (antibody, human IgG1, V domains shown)
VH: QVQLQQSGGGLVQAGGSLRLSCAASGFTFTSYAMSWVRQAPGKGLEWVATISDGDSYSYFPDSVKDRFIISRDNAKNSLFLQMNSLRAEDTAVYYCARDRIYGSVQYYAMDYWGRGTLVTVSS
VL: DIQLTQSPSSLSASVGDRVTITCRASESVEFSGTSLMQWYQQKAGLAPKLLIYAASNVESGVPSRFSGSGSGTDFTLTISSLQPEDFGTYYCQQSRKLPYTFGQGTRLEIK
notes: human IgG1
**Q.** How did the “Signal (FLU)” value [1] turn out when B8 was run?
**A.** 2.76e+06 FLU

**Q.** And the Kd [7]?
**A.** 0.132 nM

B9: VHg6/VLg11 (antibody, human IgG1, V domains shown)
VH: QVQLQQSGGGLVQPGGSLRLSCAASGFTFSSYAMSWVRQAPGKGLEWVATISDGDSYSYFPDSVKDRFTISRDNARNSLYLQMNSLRAEDTAVYYCARDRIYGSVQYYAMDYWGRGTLVTVSS
VL: DIVMTQSPDSLAVSLGERATINCRASESVEFSGTSLMQWYQQKPGQPPKLLIYAASNVESGVPDRFSGSGSGTDFTLTISSLQAEDVAVYYCQQSRKLPYTFGQGTKLEIK
notes: human IgG1
**Q.** Which results are given for B9?
**A.** EC50 (pM), DR3 Jurkat reporter [1]: 130 pM; Signal (FLU) [1]: 2.45e+06 FLU; Kd [2]: 0.145 nM; Kd [3]: 0.19 nM; Kd [4]: 0.0999 nM; IC50 [5]: 0.287 nM

B10: VHg2/VLg4 (antibody, human IgG1, V domains shown)
VH: QMQLVQSGGGLVKPGGSLRLSCAASGFTFSSYAMSWIRQAPGKGLEWVSTISDGDSYSYFPDSVKDRFTISRDNAKNSLYLQMNSLRAEDTAVYYCTRDRIYGSVQYYAMDYWGRGTLVTVSS
VL: DVVMTQSPDSLAVSLGERATISCRASESVEFSGTSLMQWYQQKPRQPLKLLIYAASNVESGVPDRFSGSGSGTDFTLTISSLQAEDVAVYYCQQSRKLPYTFGQGTRLEIK
notes: human IgG1
**Q.** How did the “Signal (FLU)” value [1] turn out when B10 was run?
**A.** 2.21e+06 FLU

**Q.** What about the Kd [7] of the same binder?
**A.** 0.0248 nM

B11: VHg5/VLg12 (antibody, human IgG1, V domains shown)
VH: QVQLQQSGGGLVQAGGSLRLSCAASGFTFTSYAMSWVRQAPGKGLEWVATISDGDSYSYFPDSVKDRFIISRDNAKNSLFLQMNSLRAEDTAVYYCARDRIYGSVQYYAMDYWGRGTLVTVSS
VL: EIVLTQSPATLSLSPGERATLSCRASESVEFSGTSLMQWYQQKPGQAPRLLIYAASNVESGIPARFSGSGSGTDFTLTISSLEPEDFAVYYCQQSRKLPYTFGQGTKLEIK
notes: human IgG1
**Q.** For B11, which “Signal (FLU)” value [1] is on record?
**A.** 2.62e+06 FLU

**Q.** And the Kd [7]?
**A.** 0.126 nM

B12: VHg5/VLg11 (antibody, human IgG1, V domains shown)
VH: QVQLQQSGGGLVQAGGSLRLSCAASGFTFTSYAMSWVRQAPGKGLEWVATISDGDSYSYFPDSVKDRFIISRDNAKNSLFLQMNSLRAEDTAVYYCARDRIYGSVQYYAMDYWGRGTLVTVSS
VL: DIVMTQSPDSLAVSLGERATINCRASESVEFSGTSLMQWYQQKPGQPPKLLIYAASNVESGVPDRFSGSGSGTDFTLTISSLQAEDVAVYYCQQSRKLPYTFGQGTKLEIK
notes: human IgG1
**Q.** With B12 as the binder, how does the “Signal (FLU)” value [1] read?
**A.** 2.4e+06 FLU

**Q.** And the Kd [7]?
**A.** 0.0881 nM

B13: VHg6/VLg1 (antibody, human IgG1, V domains shown)
VH: QVQLQQSGGGLVQPGGSLRLSCAASGFTFSSYAMSWVRQAPGKGLEWVATISDGDSYSYFPDSVKDRFTISRDNARNSLYLQMNSLRAEDTAVYYCARDRIYGSVQYYAMDYWGRGTLVTVSS
VL: DVVMTQSPDSLAVSLGERATINCRASESVEFSGTSLMQWYQQKPGQPPKLLIYAASNVESGVPDRFSGSGSGTDFTLTISSLQAEDVVVYYCQQSRKLPYTFGGGTKVEIK
notes: human IgG1
**Q.** What does the source list for B13?
**A.** Signal (FLU) [1]: 2.16e+06 FLU; Kd [7]: 0.076 nM

B14: VHg2/VLg13 (antibody, human IgG1, V domains shown)
VH: QMQLVQSGGGLVKPGGSLRLSCAASGFTFSSYAMSWIRQAPGKGLEWVSTISDGDSYSYFPDSVKDRFTISRDNAKNSLYLQMNSLRAEDTAVYYCTRDRIYGSVQYYAMDYWGRGTLVTVSS
VL: DIQMTQSPSSLSASVGDRVTITCRASESVEFSGTSLMQWYQQKPGKAPKLLIYAASNVESGVPSRFSGSGSGTDFTFTISSLQPEDIATYYCQQSRKLPYTFGQGTKLEIK
notes: human IgG1
**Q.** For B14, which “Signal (FLU)” value [1] is on record?
**A.** 2.94e+06 FLU

**Q.** And the Kd [7]?
**A.** 0.157 nM
